According to patent US6323185, “Anti-viral guanosine-rich oligonucleotides and method of treating HIV” (The United States of America as represented by the …):

What was measured:
[1] = biological target: T1, HIV-1 integrase wild-type (IN1-288) (HIV-1, UniProt P12497 P12497:1148-1435); assay: inhibition; 3'-processing; strand transfer 0.125 uM; conditions: G4
[2] = biological target: T1, HIV-1 integrase wild-type (IN1-288); assay: inhibition; 3'-processing; strand transfer 0.070 uM; conditions: G4
[3] = biological target: T1, HIV-1 integrase wild-type (IN1-288); assay: inhibition; 3'-processing; strand transfer 0.123 uM; conditions: one tetrad disrupted
[4] = biological target: T1, HIV-1 integrase wild-type (IN1-288); assay: inhibition; first activity column (headed strand transfer, order matches 3'-processing elsewhere); other column 0.750; Table B-7 gives >0.5 for both; conditions: G4
[5] = biological target: T1, HIV-1 integrase wild-type (IN1-288); assay: inhibition; 3'-processing; strand transfer 0.023 uM; conditions: G4
[6] = biological target: T1, HIV-1 integrase wild-type (IN1-288); assay: inhibition; first activity column (headed strand transfer, order matches 3'-processing in Table D-1); other column 0.600; conditions: G4
[7] = biological target: T1, HIV-1 integrase wild-type (IN1-288); assay: inhibition; first activity column (headed strand transfer); other column 0.610; Table C-2 prints 3' end ggg; conditions: G4
[8] = biological target: T1, HIV-1 integrase wild-type (IN1-288); assay: inhibition; first activity column (headed strand transfer); other column 0.500; conditions: G4
[9] = biological target: T1, HIV-1 integrase wild-type (IN1-288); assay: inhibition; 3'-processing (+/-26); strand transfer 134 nM; conditions: G4
[10] = biological target: T1, HIV-1 integrase wild-type (IN1-288); assay: inhibition; 3'-processing; strand transfer 620 nM; conditions: G4
[11] = biological target: T1, HIV-1 integrase wild-type (IN1-288); assay: inhibition; first activity column (headed strand transfer); other column 0.120; conditions: G4
[12] = biological target: T1, HIV-1 integrase wild-type (IN1-288); assay: inhibition; first activity column (headed strand transfer); other column 0.156; conditions: G4
[13] = biological target: T1, HIV-1 integrase wild-type (IN1-288); assay: inhibition; first activity column (headed strand transfer); other column 0.084; conditions: G4
[14] = biological target: T1, HIV-1 integrase wild-type (IN1-288); assay: inhibition; 3'-processing (+/-17); strand transfer 24 nM; Table C-2 0.060/0.020 uM; conditions: intramolecular G4
[15] = biological target: T1, HIV-1 integrase wild-type (IN1-288); assay: inhibition; first activity column (headed strand transfer); other column 0.013
[16] = biological target: T1, HIV-1 integrase wild-type (IN1-288); assay: inhibition; first activity column (headed strand transfer); other column 0.016; conditions: G4, loop 3 inverted
[17] = biological target: T1, HIV-1 integrase wild-type (IN1-288); assay: inhibition; first activity column (headed strand transfer); other column 0.050
[18] = biological target: T1, HIV-1 integrase wild-type (IN1-288); assay: inhibition; first activity column (headed strand transfer); other column 0.040; conditions: G4
[19] = biological target: T1, HIV-1 integrase wild-type (IN1-288); assay: inhibition; first activity column (headed strand transfer); other column 0.030; conditions: G4
[20] = biological target: T1, HIV-1 integrase wild-type (IN1-288); assay: inhibition; first activity column (headed strand transfer); other column 0.055; conditions: G4
[21] = biological target: T1, HIV-1 integrase wild-type (IN1-288); assay: inhibition; first activity column (headed strand transfer); other column 0.062; conditions: G4
[22] = biological target: T1, HIV-1 integrase wild-type (IN1-288); assay: inhibition; first activity column (headed strand transfer); other column 0.134; conditions: G4
[23] = biological target: T1, HIV-1 integrase wild-type (IN1-288); assay: inhibition; first activity column (headed strand transfer); other column 0.095; conditions: G4
[24] = biological target: T1, HIV-1 integrase wild-type (IN1-288); assay: inhibition; first activity column (headed strand transfer); other column 0.070; conditions: G4
[25] = biological target: T1, HIV-1 integrase wild-type (IN1-288); assay: inhibition; first activity column (headed strand transfer); other column 0.060; conditions: G4
[26] = biological target: T1, HIV-1 integrase wild-type (IN1-288); assay: inhibition; first activity column (headed strand transfer); other column 0.100; conditions: G4
[27] = biological target: T2, gp120 envelope glycoprotein (HIV-1, UniProt P04578 P04578:33-511); assay: competition; ID50, gp120/CD4 ELISA, preincubated with gp120; conditions: tags: gp120 capture ELISA kit
CD4 = CD4 (UniProt P01730 P01730:26-396); assay: competition; ID50, oligo with immobilized CD4; conditions: tags: immobilized, gp120 capture ELISA kit
[28] = biological target: T2, gp120 envelope glycoprotein; assay: competition; ID50, gp120/CD4 ELISA; conditions: tags: gp120 capture ELISA kit

Q: How did the IC50 [1] turn out when GTGGTGGGTGGGTGGGT (ssDNA, all phosphodiester) [T30175] was run?
A: 170 nM

Q: GTGGTGGGTGGGTGGGT (ssDNA, all PS) [T30038] was tested. Which IC50 [2] did it give?
A: 90 nM

Q: With GTGATGGGTGGGTGGGT (ssDNA, PS at first and last linkages) [T30526] as the binder, how does the IC50 [3] read?
A: 200 nM

Q: GGTTGGTGTGGTTGG (ssDNA, PS at first and last linkages (Table B-7; Table C-1 lists it as PT)) [T30659 thrombin-binding aptamer pPT] was tested. Which IC50 [4] did it give?
A: 870 nM

Q: With GGTTGGTGTGGTTGG (ssDNA, all PS (Table B-7; Table C-1 lists it as pPT)) [T30341 thrombin-binding aptamer PT] as the binder, how does the IC50 [5] read?
A: 42 nM

Q: Which IC50 [6] does the source give for GTGGTTGGTGTGGTTGG (ssDNA, PS at first and last linkages) [T30673] here?
A: 790 nM

Q: GTGGTTGGTGTGGTTGGT (ssDNA, PS at first and last linkages) [T30674] was tested. Which IC50 [7] did it give?
A: 760 nM

Q: For GTGGTGGGTGTGGTTGGT (ssDNA, PS at first and last linkages) [T30675], which IC50 [8] is on record?
A: 485 nM

Q: With GTGGTGGGTGTGGTGGGT (ssDNA, PS at first and last linkages) [T30676] as the binder, how does the IC50 [9] read?
A: 148 nM

Q: For GTGGTTGGTGGGTTGGT (ssDNA, PS at first and last linkages) [T30677], which IC50 [10] is on record?
A: 725 nM

Q: With GTGGTGGGTGGGTTGGT (ssDNA, PS at first and last linkages) [T30678] as the binder, how does the IC50 [11] read?
A: 98 nM

Q: How did the IC50 [12] turn out when GTGGTTGGTGGGTGGGT (ssDNA, PS at first and last linkages) [T30679] was run?
A: 159 nM

Q: For GUGGUGGGUGGGUGGGU (ssRNA, PS at first and last linkages, RNA sugars) [T30661], which IC50 [13] is on record?
A: 111 nM

Q: How did the IC50 [14] turn out when GGGTGGGTGGGTGGGT (ssDNA, PS at first and last linkages) [T30695] was run?
A: 43 nM

Q: GTGGGTGGTGGGTGGGT (ssDNA, PS at first and last linkages) [T30696] was tested. Which IC50 ([15]; G4, loop 1 inverted) did it give?
A: 122 nM

Q: For GTGGTGGGGTGGTGGGT (ssDNA, PS at first and last linkages) [T30697], which IC50 ([15]; G4, loop 2 inverted) is on record?
A: 130 nM

Q: For GTGGTGGGTGGGGTGGT (ssDNA, PS at first and last linkages) [T30698], which IC50 [16] is on record?
A: 150 nM

Q: For GTGGGTGGTGGGGTGGT (ssDNA, PS at first and last linkages) [T30699], which IC50 ([17]; G4, loops 1 and 3 inverted) is on record?
A: 136 nM

Q: With GTGGTGGGTGGGTGGGT (ssDNA, PS at first and last linkages, capital T = C5-propynyl dU) [T30700] as the binder, how does the IC50 [18] read?
A: 82 nM

Q: How did the IC50 [19] turn out when GTGGTGGGTGGGTGGGT (ssDNA, PS at first and last linkages, capital T = C5-propynyl dU) [T30701] was run?
A: 72 nM

Q: With GTGGTGGGTGGGTGGGT (ssDNA, PS at first and last linkages, capital T = C5-propynyl dU) [T30702] as the binder, how does the IC50 [19] read?
A: 32 nM

Q: Which IC50 [20] does the source give for GGGTGGGTGGGTGGGT (ssDNA, PS at first and last linkages, capital T = C5-propynyl dU) [T30719] here?
A: 55 nM

Q: Which IC50 [21] does the source give for GGGGTGGTGGGTGGGT (ssDNA, PS at first and last linkages, capital T = C5-propynyl dU) [T30720] here?
A: 59 nM

Q: Which IC50 [22] does the source give for GTGGGTGGTGGGTGGGT (ssDNA, PS at first and last linkages, capital T = C5-propynyl dU) [T30722] here?
A: 129 nM

Q: How did the IC50 [23] turn out when GTGGTGGGTGGGTGGGT (ssDNA, 3'-cholesterol via triglycyl linker) [T30075] was run?
A: 110 nM

B1: T30570 (ssDNA)
DNA: GTGGTGGGTGGGTGGGT
modifications: PS at first and last linkages, 5-bromo-dU at position 13 [n positions 13 = modified dU]
Q: B1 was tested. Which IC50 [24] did it give?
A: 90 nM

B2: T30571 (ssDNA)
DNA: GTGGTGGGTGGGTGGGT
modifications: PS at first and last linkages, 5-bromo-dU at positions 5, 9, 13 [n positions 5,9,13 = modified dU]
Q: Which IC50 ([17]; G4) does the source give for B2 here?
A: 55 nM

B3: T30576 (ssDNA)
DNA: GTGGTGGGTGGGTGGGT
modifications: PS at first and last linkages, 5-iodo-dU at position 5 [n positions 5 = modified dU]
Q: With B3 as the binder, how does the IC50 ([17]; G4) read?
A: 65 nM

B4: T30577 (ssDNA)
DNA: GTGGTGGGTGGGTGGGT
modifications: PS at first and last linkages, 5-iodo-dU at position 9 [n positions 9 = modified dU]
Q: How did the IC50 [20] turn out when B4 was run?
A: 65 nM

B5: T30578 (ssDNA)
DNA: GTGGTGGGTGGGTGGGT
modifications: PS at first and last linkages, 5-iodo-dU at position 13 [n positions 13 = modified dU]
Q: How did the IC50 ([17]; G4) turn out when B5 was run?
A: 60 nM

B6: T30579 (ssDNA)
DNA: GTGGTGGGTGGGTGGGT
modifications: PS at first and last linkages, 5-iodo-dU at positions 5, 9, 13 [n positions 5,9,13 = modified dU]
Q: Which IC50 [20] does the source give for B6 here?
A: 60 nM

Q: Which IC50 [25] does the source give for GTGGTGGGCGGGTGGGT (ssDNA, PS at first and last linkages) [T30744] here?
A: 105 nM

Q: With GTGGTGGGTGGGCGGGT (ssDNA, PS at first and last linkages) [T30745] as the binder, how does the IC50 [26] read?
A: 100 nM

Q: Which IC50 [27] does the source give for GTTGGGGGTTGTTGGTGGGGTGGTGG (ssDNA, all PS) [I100-12] here?
A: 80 nM

Q: What about the IC50 (CD4) of the same binder?
A: 475 nM

Q: What does the source list for GTGGTGGGTGGGTGGGTGGTGGGTGGTGGTTGTGGGTGGGTGGTG (ssDNA, all PS) [I100-21]?
A: IC50 [27]: 70 nM; IC50 (CD4): 48 nM

Q: With GGGTGGGTGGGTGGGTGG (ssDNA, all PS) [1174] as the binder, how does the IC50 [28] read?
A: 90 nM

Q: Which IC50 [28] does the source give for GATCCATGTCAGTGACAC (ssDNA, phosphodiester, amine) [1231 random] here?
A: > 100000 nM

Q: And the IC50 (CD4)?
A: > 50000 nM

Q: Which IC50 [28] does the source give for GATCCATGTCAGTGACAC (ssDNA, all PS) [1232 random PT] here?
A: > 10000 nM

Q: And the IC50 (CD4)?
A: > 10000 nM
